{"source": "the nanobody polyreactivity screen of Harvey et al. (2022)"}
{"assay": "yeast display, Sf9 membrane polyspecificity reagent, FACS + sequencing; frameworks hold sequencing errors", "method_in_brief": "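Polyreactivity labels are assigned by the sorting gate from which each nanobody was recovered. The gates were low and high (top ~1%), set on anti-HA fluorescence for expression and streptavidin fluorescence for reagent binding. Before sorting, galactose-induced (36–48 hours) yeast display cells were stained for 1 hour at 4 °C with 10% biotinylated, detergent-solubilized Sf9 membrane reagent.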"}
{"sequence": "QVQLVESGGGLVQAGGRLRLSCAASAFIFVTYAMGCYRQAPGKERELVAAITNSGGTTYYADSVKGRFTISRDNAKNTVYLQMNSLKPEDTAVYYCNTEDFFNVPEMDSWGQGTQVTVSS", "polyreactivity (PSR sort gate)": "low polyreactivity"}
{"sequence": "QVQLVESGGGLVQAGGRLRLSCAASGFIFKGYAKGWYRQAPGKERELVAAISYSGGNTYYADSVKGRFTISRDNAKNTVYLQMNSLKPEDTAVYYCDVRKRKVLGMYYWGQGTQVTVSS", "polyreactivity (PSR sort gate)": "high polyreactivity"}
{"sequence": "QVQLVESGGGLVQAGGRLRLSCAASGFIFPHYAMGWYRQAPGKDRELVAAITWSGSSTYYADSVKGRFTISRDNAKNTVYLQMNSLKPEDTAVYYCYADYRLWPTSRYRYGYWGQGTQVTVTS", "polyreactivity (PSR sort gate)": "high polyreactivity"}
{"sequence": "QVQLVESGGGLVQAGGRLRLSCAASGFIFSYYAMAWYIQAPGKERELVAAISSAGSTYYADSVKGRFTISRDNAKNTVYLQMNSLKPEDTAVYYCAAAIWYIKLYFVRRTEHGYWGQGTQVTVSS", "polyreactivity (PSR sort gate)": "low polyreactivity"}
{"sequence": "QVQLVESGGGLVQAGGRLRLSCAASGFILATNAMGWYRQAPGKERELVAAISYSGGSTNYADSVKGRFTISRDNAKNTVYLQMNSLKPEDTAVYYCNAGGTVIWAWYGPVYSWGQGTQVTVSS", "polyreactivity (PSR sort gate)": "low polyreactivity"}
{"sequence": "QVQLVESGGGLVQAGGRLRLSCAASGFTFAYYAMGWYRQAPGKERELVAAIRWSGTRTYYADSVKGRFTISRDHAKNTVYLQMNSLKPEDTAVYYCAKGIWYGTSGYYYWGQGTQVTVSS", "polyreactivity (PSR sort gate)": "high polyreactivity"}
{"sequence": "QVQLVESGGGLVQAGGRLRLSCAASGFTFLGSAMGWYRQAPGKERELVAAISSSGGSTYYADSVKGRFTISRDNAKNTVYLQMNSLKPEDTAVYYCAAYVAVPPSDYDYWGQGTQVTVSS", "polyreactivity (PSR sort gate)": "high polyreactivity"}
{"sequence": "QVQLVESGGGLVQAGGRLRLSCAASGFTFSVYPMGWYIQAPGKERELVAAISWSGGSTYYADSVKGRFTISRDNAKNTVYVQMNSLKPEDTAVYYCNAYFSYKYRYPEDYWGQGTQVTVSS", "polyreactivity (PSR sort gate)": "high polyreactivity"}
{"sequence": "QVQLVESGGGLVQAGGRLRLSCAASGGIFVSYAMGWYRQSPGKEREMVAAITSGGGTSYADSVKGRFTISRDNAKNTVYLQMNSLKPEDTEVYYCAARFMWSVFGRKGGYWGQGTQVTVSS", "polyreactivity (PSR sort gate)": "low polyreactivity"}
{"sequence": "QVQLVESGGGLVQAGGRLRLSCAASGGLLDIYVMGWYRQAPGKERELVAAITTRGGSTFYADSVKGRFTISRDNAKNTVYLQMNSLIPEDTAVYYCNKRLLVSRSSAQAYGYWGQGTQVTVSS", "polyreactivity (PSR sort gate)": "high polyreactivity"}
{"sequence": "QVQLVESGGGLVQAGGRLRLSCAASGGTFSKNAIGWYRQAPGKEREFVAAISSTGGDTTYYADSVKGRFTISRDNAKNTVYLQMNSVKPEDTAFYYCNSDYIFWPWYDYWGQGTQVTVSS", "polyreactivity (PSR sort gate)": "low polyreactivity"}
{"sequence": "QVQLVESGGGLVQAGGRLRLSCAASGGWYRQAPGKERELVAAISWRDSSTYYADSVKGRFTISRDNAKNTVYLQMNSLKPEDTAVYYCAVRAYPWPEYYYWGQGTQVTVSS", "polyreactivity (PSR sort gate)": "low polyreactivity"}
{"sequence": "QVQLVESGGGLVQAGGRLRLSCAASGIIFSYYAMGWYRQAPGKERELVAAISWGGGSTYYADSVKGRFTISRDYAKNTVYLQMNSLKPEDTAVYYCAADYFDFFTGYEMGYWGQGTKVTVSS", "polyreactivity (PSR sort gate)": "high polyreactivity"}
{"sequence": "QVQLVESGGGLVQAGGRLRLSCAASGIIFYGYAMGWYRQAPGKERELVAAITSYDGSTYYADSVKGRFTISRDNEKNTVYLQMNILKPEDTAFYYCAADYSTYEGWYWFDYWGQGTQVTVSS", "polyreactivity (PSR sort gate)": "high polyreactivity"}
{"sequence": "QVQLVESGGGLVQAGGRLRLSCAASGIILGRYAMGWDRQAPGKERELVAAISIRGTRTYYADSVKGRFTISRDNAKNTVYLQLNSLKPEDTAVSYCAAKTVLWGQGTQVTVSS", "polyreactivity (PSR sort gate)": "high polyreactivity"}
{"sequence": "QVQLVESGGGLVQAGGRLRLSCAASGIISSAYAIGWYRQAPGKERELVAAISSGGSTKYADSVKGRFTISRDNAKNTVYLQMNSLKPEDTAVYYCAARTRYPYKVFGYWGQGTQVTVSS", "polyreactivity (PSR sort gate)": "high polyreactivity"}
{"sequence": "QVQLVESGGGLVQAGGRLRLSCAASGITFTVFAMGWYRQAPGKERELVAAISQSGGSTYYADSVKGRFTISRDNAKNTVYLQMNILNPEDTAVYYCAKTLPSNGHYDYWGQGTQVTVSS", "polyreactivity (PSR sort gate)": "low polyreactivity"}
{"sequence": "QVQLVESGGGLVQAGGRLRLSCAASGITIYGYAMGWYRQAPGKEREFVAAISYSGASTYYADSVKGRFTISRDNAKNTVYLQMNSLKPEDTAVYYCAARVRRSLYGYWGIGTQVTVSS", "polyreactivity (PSR sort gate)": "high polyreactivity"}
{"sequence": "QVQLVESGGGLVQAGGRLRLSCAASGLTFKRYAMGWYRQAPGKERELVASITGNGGSTYYADSVKGRFTISRDNAKNTVYLQINSLKPEDTAVYYCNARRYVRTSQQPLYFYWGQGTQVTVSS", "polyreactivity (PSR sort gate)": "high polyreactivity"}
{"sequence": "QVQLVESGGGLVQAGGRLRLSCAASGLTFYLSAMGWYRQAPGKERELVAGISRSGGSTYYADAVKGRFTISRDYAKNTVYLLMNSLKPEDTAVSYCNKASAVFEFYYWGQGTQVTVSS", "polyreactivity (PSR sort gate)": "high polyreactivity"}
{"sequence": "QVQLVESGGGLVQAGGRLRLSCAASGRIFAANVMGSYRQAPGKERELVAAISWNGGSTYYADSEKGRFTISRDNAKKSVYLQLNSLKPEDTAVYYCAVRGSYRVWYDYWGQGTQVTVSS", "polyreactivity (PSR sort gate)": "high polyreactivity"}
{"sequence": "QVQLVESGGGLVQAGGRLRLSCAASGRIFPDNTMGWYRQAPGKERELVAVITYSGGSTYYADSVKGRFTISRDNAKNTVYLQMNSLKPEDTAVYYCAARDYYIWFAEVDYWGQGTQVTVSS", "polyreactivity (PSR sort gate)": "low polyreactivity"}
{"sequence": "QVQLVESGGGLVQAGGRLRLSCAASGRIFSAYAMGWYRQAPGKERELVAAISRSGGRTYYADSVKGRFTISRDNAKNTVYLQMNSLKPEDTAVYYCAAARFAIVRGDYWGQGTQVTVSS", "polyreactivity (PSR sort gate)": "high polyreactivity"}
{"sequence": "QVQLVESGGGLVQAGGRLRLSCAASGRIFSKNAMGWYRQAPGKERELVAVISARGGNTYYADSVKGRFTISRDNAKNTVYLQMNSLKPEDTAVYYCNTPRPYEITTREYYYWGQGTQVTVSS", "polyreactivity (PSR sort gate)": "high polyreactivity"}
{"sequence": "QVQLVESGGGLVQAGGRLRLSCAASGRIFVAYVMGWYRQAPGKERELVAAITRGVRTYYADSVKGRFTISRDNAKNTVYLQMNSLKPEDTAVYYCAARGISAFSQDYEYYYWGQGTQVTVSS", "polyreactivity (PSR sort gate)": "high polyreactivity"}
{"sequence": "QVQLVESGGGLVQAGGRLRLSCAASGRIFVRYVMGWYRQAPGKERELVAAISGGGSSTYYADSVKGRFTISRDNAKNTVYLQMNSLKPVDTAVYYCAAKGTRQPRFDFWGQGTQVTVSS", "polyreactivity (PSR sort gate)": "high polyreactivity"}
{"sequence": "QVQLVESGGGLVQAGGRLRLSCAASGRIFVVYAMGWSRQAPGKERELVAAISKRGGSTYYADSVKGRFTISRDNAKYTVYLQMNTLKPEDTAVYYCAAGRYKSDLMDYWGQGTQVTVSS", "polyreactivity (PSR sort gate)": "high polyreactivity"}
{"sequence": "QVQLVESGGGLVQAGGRLRLSCAASGRIFYLNAMGWYRQAPGKERELVAAINTSGDSSYYADSVKGRFTISRDNAKNTVYLQMNSLKPEDTAVYYCAAYVIGPDQFIYDYWGQGTQVTVSS", "polyreactivity (PSR sort gate)": "low polyreactivity"}
{"sequence": "QVQLVESGGGLVQAGGRLRLSCAASGRIFYYNAMGWYRQAPGKERELVATITGSGGSTYYADSVKGRFTISRDIAKNTVYLQMNSLKPEDTAVYYCAKRIYRYQYRPENYWGQGTQVTVSS", "polyreactivity (PSR sort gate)": "low polyreactivity"}
{"sequence": "QVQLVESGGGLVQAGGRLRLSCAASGRSYPPYAMGWYREAPGKERELLAAISYSGGSTYYADSVTGRFTISRDNAKNPVYLQMNSLKPEDTSVFYCNKDISREVGIRMDDWGQGTQVTVSS", "polyreactivity (PSR sort gate)": "high polyreactivity"}
{"sequence": "QVQLVESGGGLVQAGGRLRLSCAASGRTFGVYVMGWYRQAPGKERELVAAISSSGGLTYYADSVKGRFTISRDNAKNTVYLQMNSMKPEDTAVYYCNAVRRREERDGPPNPMDYWGQGTQVTVSS", "polyreactivity (PSR sort gate)": "high polyreactivity"}
{"sequence": "QVQLVESGGGLVQAGGRLRLSCAASGRTFNYYAMGWYRQAPGKERELVATISYNGASTYYADSVKGRFTISRDNAKNTVYLQMNSLKPEDTAVYYCAAGYLWRGRLGNWGQGTQVTVSS", "polyreactivity (PSR sort gate)": "high polyreactivity"}
{"sequence": "QVQLVESGGGLVQAGGRLRLSCAASGRTFPLYAMGWYRQAPGKERELVAAISSSGGNTYYADSVKGRFTISRDNAKNTVYLQMNSLIPEETAVYYCNADVSTNSDRLQLDYWGQGTQVTVSS", "polyreactivity (PSR sort gate)": "low polyreactivity"}
{"sequence": "QVQLVESGGGLVQAGGRLRLSCAASGRTFTYFAMGWYRKAPGKERELVAAISWDDDSTYYADSVKGRFTISRDYAKNTVYLQMNSLKPEDTAVYYCAASYYRQSGEYDYWGQGTQVTVSS", "polyreactivity (PSR sort gate)": "low polyreactivity"}
{"sequence": "QVQLVESGGGLVQAGGRLRLSCAASGRTFYVYAMGWYRQAPGKERELVAAISWTGGSTYYADSVKGRFTISRDHAKNTVYLQMNSLKPEDTAVYDCAVDVYRRDYVAYEYWGQGTQVTVSS", "polyreactivity (PSR sort gate)": "high polyreactivity"}
{"sequence": "QVQLVESGGGLVQAGGRLRLSCAASGRTIVQNAMVWYRHDPGKERALVAAITSSGGRTYYADSVKGRFTISRDNAKNTVYLQMNSLKPEDTAVYYGAVTLRRGYDYWGQGTQVTVSS", "polyreactivity (PSR sort gate)": "high polyreactivity"}
{"sequence": "QVQLVESGGGLVQAGGRLRLSCAASGSIFAYYAMGSYRQAPGKERELVAAISSSGGSTTYADSVKGRFTISRDNAKYTVYLQMNSLKPDDTAVYYCNAAWRRSRYYNWGQGTQVTVSS", "polyreactivity (PSR sort gate)": "high polyreactivity"}
{"sequence": "QVQLVESGGGLVQAGGRLRLSCAASGSIFDENTMGWYRQAPGKERELVAAITYSGTSTYYADTVKGRFTISRDNAKNTVYLQMNSLKPEDTAVYYCAAEQWRYDGSFTGYGYWGQGTQVTVSS", "polyreactivity (PSR sort gate)": "low polyreactivity"}
{"sequence": "QVQLVESGGGLVQAGGRLRLSCAASGSIFGTNAMGWYRQAPGKERELVAAISSSGTSTYYADSVKGRFTISRDNAKNTVYLQMNSLKPEDTAVYYCAAATNWGGEYWGQGTQVTVSS", "polyreactivity (PSR sort gate)": "high polyreactivity"}
{"sequence": "QVQLVESGGGLVQAGGRLRLSCAASGSIFPYYAMGWDRQAPGKERELVASINQSDGTRYYADSVKGRFTISRDNAKNTVYLQMNSLKPEDTAVYYCAADTTLQAFIRYRPMGSYDSWGQGTQVTVSS", "polyreactivity (PSR sort gate)": "low polyreactivity"}
{"sequence": "QVQLVESGGGLVQAGGRLRLSCAASGSIFPYYVMGWYRQAPGKERELVAAISTSDGSTYADSVKGRFTISRDNAKNTVYLQMNSLKPEDTAVYYCAVANVYYVGYDYWGQGTRVTVSS", "polyreactivity (PSR sort gate)": "low polyreactivity"}
